Residue numbers refer to the chain shown, from its start. Numbers in names are those of the source. Where “and” joins values, the source holds several entries; their conditions need not be identical. Equal entries are not always repeated.
How the values were obtained:
Test in all cases: fluorescence polarisation
[1] = biological target: fluorescein-labeled CaV1.2 IQ peptide WT (residues 1644-1666) (rat)
[2] = biological target: fluorescein-labeled CaV1.2 IQ peptide K1662E (rat)
[3] = biological target: fluorescein-labeled CaV1.2 IQ peptide K1647A (rat)
[4] = biological target: fluorescein-labeled CaV1.2 IQ peptide K1647E (rat)
[5] = biological target: fluorescein-labeled CaV1.2 IQ peptide WT (residues 1644-1666) (rat); remark: listed apart in the source

apoCaM mutant E88K (from UniProt P0DP33 3-149) (natural protein)
fold decrease in binding affinity against the WT pair [1]: > 5 fold

Ca2+-free calmodulin (apoCaM) (from UniProt P0DP33 1-149) (natural protein)
fold decrease in binding affinity against the WT pair [2]: > 5 fold
Kd [1]: 10 µM and 2.6 µM

apoCaM mutant F90A (from UniProt P0DP33 3-149) (natural protein)
fold decrease in binding affinity against WT apoCaM [1]: 3.3 fold

B1: α-actinin-1_EF34 (residues 822-892) (domain or fragment)
chain: DTDTADQVMASFKILAGDKNYITMDELRRELPPDQAEYCIARMAPYTGPDSVPGALDYMSFSTALYGESDL
fold increase of Kd against the WT IQ peptide [3]: 5 fold
fold increase of Kd against the WT IQ peptide [4]: 5 fold

B2: α-actinin-1_EF34 mutant E847K/E851K (domain or fragment)
chain: B1 chain with E26K, E30K
fold increase of Kd against WT α-actinin-1 EF3/4 [5]: 12 fold

B3: α-actinin-1 EF3/4 mutant F833A (domain or fragment)
chain: B1 chain with F12A
fold decrease in binding affinity against WT α-actinin-1 EF3/4 [5]: 8 fold

— publication doi:10.1101/664102
